Measured values taken from the supplement of paper PMC10567573.

B1: ZER1 (parent)
chain: KEMARKVIEHCSNFKEENMDTSR

Variants of: B1
Assay: protein stability index of a GFP-peptide fusion (GPS, HEK-293T) (PSI 1-6); higher = more stable
Conditions: c terminus: native
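Also: lentivirally expressed fusions sorted by FACS into six bins by GFP to DsRed ratio, PSI derived from sequencing read proportions per bin multiplied by bin number.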

| Variant | protein stability index |
| --- | --- |
| E16N | 3.19 |
| E16R | 2.98 |
| E16A | 2.9 |
| E16K | 3.85 |
| E16I | 2.45 |
| E16P | 3.31 |
| E16L | 2.52 |
| E16S | 4.19 |
| E16G | 3.83 |
| E16M | 2.68 |
| E16Y | 2.37 |
| E16F | 2.46 |
| E16D | 3.07 |
| E16T | 3.1 |
| E16V | 3.43 |
| E16Q | 3.14 |
| E16W | 2.16 |
| E16H | 2.79 |
| E16C | 3.17 |
| F14M | 4.4 |
| F14N | 4.73 |
| F14I | 4.35 |
| F14V | 4.94 |
| F14G | 4.69 |

| Variant | protein stability index |
| --- | --- |
| F14S | 4.68 |
| F14H | 4.8 |
| F14T | 4.46 |
| F14L | 4.03 |
| F14W | 3.33 |
| F14Q | 4.73 |
| F14R | 4.55 |
| F14D | 5.02 |
| F14Y | 3.56 |
| F14C | 3.91 |
| F14A | 4.56 |
| F14E | 4.78 |
| F14P | 4.26 |
| F14K | 4.92 |
| E9K | 4.37 |
| E9R | 4.01 |
| E9M | 2.96 |
| E9L | 2.64 |
| E9Q | 4.08 |
| E9N | 4.29 |
| E9W | 1.55 |
| E9G | 4.29 |
| E9P | 4.58 |
| E9F | 2.13 |

| Variant | protein stability index |
| --- | --- |
| E9S | 4.26 |
| E9T | 4.35 |
| E9Y | 3.16 |
| E9A | 4 |
| E9I | 3.03 |
| E9D | 4.11 |
| E9V | 3.87 |
| E9H | 3.92 |
| E9C | 4.04 |
| S22M | 3.43 |
| S22K | 2.86 |
| S22P | 4.29 |
| S22F | 3.72 |
| S22D | 4.07 |
| S22C | 2.4 |
| S22G | 3.48 |
| S22Q | 3.72 |
| S22E | 3.74 |
| S22I | 3.72 |
| S22N | 4.12 |
| S22L | 3.58 |
| S22R | 2.38 |
| S22A | 2.64 |
| S22H | 3.09 |

| Variant | protein stability index |
| --- | --- |
| I8V | 4.35 |
| I8C | 4.42 |
| I8W | 1.86 |
| I8F | 3.2 |
| I8Y | 3.88 |
| I8N | 4.98 |
| I8Q | 4.67 |
| I8L | 3.13 |
| I8H | 4.29 |
| I8S | 3.92 |
| I8G | 4.64 |
| I8A | 4.58 |
| I8T | 4.4 |
| I8R | 4.33 |
| I8E | 4.87 |
| I8M | 3.51 |
| I8P | 4.7 |
| I8D | 5.19 |
| I8K | 4.91 |
| E17Q | 3.19 |
| E17K | 2.84 |
| E17Y | 2.41 |
| E17L | 2.35 |
| E17N | 3.55 |

| Variant | protein stability index |
| --- | --- |
| E17M | 3.51 |
| E17S | 3.29 |
| E17G | 3.4 |
| E17C | 2.68 |
| E17F | 2.79 |
| E17D | 3.63 |
| E17P | 2.93 |
| E17I | 3.15 |
| E17V | 2.74 |
| E17W | 2.2 |
| E17A | 2.98 |
| E17H | 2.83 |
| E17T | 3.45 |
| E17R | 2.21 |
| K15L | 3.13 |
| K15S | 3.34 |
| K15Y | 3.27 |
| K15G | 3.7 |
| K15I | 3.5 |
| K15V | 3.9 |
| K15F | 3.17 |
| K15P | 4.08 |
| K15D | 4.24 |
| K15A | 3.31 |

| Variant | protein stability index |
| --- | --- |
| K15N | 3.64 |
| K15Q | 3.57 |
| K15H | 3.52 |
| K15C | 3.93 |
| K15M | 3.54 |
| K15R | 2.8 |
| K15W | 2.85 |
| K15E | 4.32 |
| K15T | 4.15 |
| N13D | 3.61 |
| N13A | 3.28 |
| N13V | 3.05 |
| N13K | 3.85 |
| N13F | 2.49 |
| N13G | 3.5 |
| N13H | 3.53 |
| N13T | 3.68 |
| N13L | 1.92 |
| N13R | 3.11 |
| N13C | 3.04 |
| N13E | 3.69 |
| N13Q | 3.07 |
| N13S | 3.33 |
| N13W | 2.4 |

| Variant | protein stability index |
| --- | --- |
| N13M | 2.88 |
| N13I | 1.93 |
| N13Y | 3.15 |
| N13P | 3.32 |
| T21W | 2.3 |
| T21K | 1.68 |
| T21M | 4.41 |
| T21R | 1.65 |
| T21L | 3.26 |
| T21D | 5.16 |
| T21P | 4.17 |
| T21Y | 2.13 |
| T21Q | 3.84 |
| T21V | 3.1 |
| T21H | 2.18 |
| T21G | 5.12 |
| T21I | 3.16 |
| T21F | 3.84 |
| T21S | 4.65 |
| T21E | 4.98 |
| T21N | 4.48 |
| T21A | 4.09 |
| T21C | 3.39 |
